Measured values published in patent publication US20260008856A1, “METHODS OF TREATING DISEASE USING ANTI-IL1RAP ANTIBODIES AND ANTIBODY DRUG CONJUGATES” (Bluefin Biomedicine, Inc., priority 2022, published 2026).

Columns and labels:
[1] = tested on: IL-6 secretion in human whole blood cultures stimulated with HKCA; experiment: IL-6 production in human whole blood cultures stimulated with heat-killed Candida albicans; type: cell-based; conditions: 24 hours, 1 μg/ml alone, combination 1 μg/ml BFB759 + 0.5 μg/ml adalimumab
Excerpt: Materials included Human peripheral blood drawn from 5 healthy donors. Materials also included Anti-human TNF alpha (Adalimumab Biosimilar), BioXCell cat #SIM0001, lot #8024221F1; Heat-killed Candida albicans (HKCA), InvivoGen cat #tlrl-hkca, lot #6292-44-02; RPMI 1640 with L-glutamine and HEPES, Corning cat #10-041-CM; and Human IL-6 DuoSet ELISA, R and D Systems cat #DY206-05. Blood was drawn into heparin tubes from healthy volunteers. Whole blood cultures comprised of whole blood diluted with plain RPMI 1640 medium were set up in sterile 5.0 ml polypropylene snap cap culture tubes. One of the following treatments were added for 1 hour prior to either being left unstimulated or receiving stimulation with 1.5×10^6 cells heat-killed Candida albicans: medium alone (cells alone), 1 μg/ml IgG1 isotype control antibody alone, 1 μg/ml BFB759 alone, 1 μg/ml adalimumab alone, or one of two combination treatments of 1 μg/ml IgG1 isotype control antibody+0.5 μg/ml adalimumab or 1 μg/ml BFB759+0.5 μg/ml adalimumab. The final volume of each culture was 1.0 ml. Cultures were incubated for 24 hours at 37° C./5% CO2. Supernatants harvested from each culture in duplicate were frozen at −80° C. until assayed in duplicate for IL-6 levels by ELISA.

[2] = tested on: TARC production in HDM stimulated human PBMCs; experiment: TARC production in HDM stimulated human PBMCs; type: cell-based; conditions: antibodies 30 ug/ml, HDM 10 ug/ml
Excerpt: Materials included Human peripheral blood mononuclear cells (PBMCs) that were isolated from healthy donor blood and either frozen in liquid nitrogen and thawed prior to analysis or used fresh. Materials also included HDM (house dust mite extract) that was from Greer lab and purchased through Fisher Scientific (NC9756554, Lot #390844). Additionally, Human IL-4 (204-IL-010) was purchased from R&D Systems; Human IL-13 (200-13) was purchased from Peprotech; JAK inhibitors (JAKi) Abrocitinib (HY-107429) and Upadacitinib (HY-19569) were purchased from MedChemExpress; Dexamethasone (D4902) was purchased from Sigma-Aldrich; Dupilumab (HY-P9926) was purchased from MedChemExpress; Tralokinumab was produced by Bluefin Biomedicine according to the published protein sequence; and TARC ELISA kits (DuoSet Cat #DY364, Quantikine Cat #SDN00) were purchased from R&D Systems.
Blood was drawn in heparin tubes from healthy volunteers. PBMCs were isolated by centrifugation of the blood over Ficoll-Paque Plus density gradients using LeucoSep tubes.
0.2 million PBMCs in 100 ul medium (RPMI1640, 10% heat-inactivated FBS) were added to each well of 96 well cell culture plate. BFB759 at multiple concentrations in 50 ul medium was added to the wells. The cells were incubated in the incubator for 45 min. Then, 50 ul HDM solution (final concentration 10 ug/ml) was added to the wells. […]

[3] = tested on: normal human dermal fibroblasts (NHDF); experiment: IL-6 and IL-8 production in NHDF stimulated with cytokine combo incl. IL-17A; type: cell-based; conditions: cytokine combo IL-1α/β, IL-36α/β/γ, antibodies 0-20 ug/ml, BFB759 0.5 ug/ml in combination
Procedure: Human NHDF cells were plated on 96-well, flat-bottom plates at 4,000 cells/well. […] For combination therapy, 0.5 ug/ml BFB759 was mixed with Secukinumab or Isotype control antibody at increasing concentrations (0-20 ug/ml, 5-fold dilution) and incubated with cells in duplicate for 45 minutes, prior to the addition of cytokine combo. The plates were then incubated overnight at 37° C., 5% CO2. 24 hours after treatment, supernatants were transferred and assayed for IL-6 and IL-8, as per manufacture's protocol (R&D Systems; Human IL-6 DuoSet ELISA, Human IL-8/CXCL8 DuoSet ELISA). The raw assay data were analyzed using GraphPad Prism 9 software to perform a non-linear regression.

IL-1α signaling = experiment: IL-1 signaling reporter cell assay, IL-1α; type: cell-based; conditions: serial dilution of antibody
Procedure: HEK-Blue IL-1β cells (Invivogen, CA) were harvested and plated in technical duplicates at a density of 50,000 cells per well in a 96-well plate. IL1RAP antibodies, or a corresponding human IgG1 control antibody was added to the wells in a concentration range of […]. After incubating cells with antibodies for 30 minutes, IL-1β was added to a final concentration of 0.5 ng/ml, and the plate was incubated overnight. To examine whether any of the antibodies were able to induce IL-1R activation in the absence of IL-1β, samples were incubated with 10 μg/mL antibody without addition of the ligand. The following day, substrate was added to the supernatants, and samples were analyzed for absorbance at 620 nm.
In addition, serial dilution of IL1RAP antibodies was performed to determine EC50 against IL-1β and IL-1α (FIGS. 6B and 6C). Many of these antibodies, including 37E10_15B5 and 44E5_15C5 can block IL-1β and IL-1α signaling with subnanomolar EC50.

recombinant human IL1RAP = molecular target: T1, recombinant human IL1RAP (Homo sapiens, UniProt Q9NPH3); experiment: Binding competition binning on Octet; conditions: Protein A biosensors
T1 construct: MBP-IL1RAP(S21-T367)-; 8xHis (C); made in house; host or cells: CHO (ExpiCHO transient expression)
In short: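 Protein A biosensors loaded with first antibody (10 ug/mL, 5 min), blocked with irrelevant antibody (100 ug/mL, 5 min). Then exposed to recombinant human IL1RAP (1 min) and a second antibody (1 min). Octet interferometry signal increase indicates non-competing pairs; antibodies assigned to bins.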

B1: 37E10_15B5: human anti-IL1RAP antibody BFB759 (i.e., 37E10_15B5), VH SEQ ID NO: 64, VL SEQ ID NO: 68 (antibody, V domains shown)
VH: QVQLVESGGGVVQPGRSLRLSCAASGFTFRSHGMHWVRQAPGKGLEWVAVIWYDGSSEYYADSVKGRFTISRDNSKNTLYLQMNSLRAEDTAVYYCARENVYGSGWFFDYWGQGTLVTVSS
VL: EIVMTQSPATLSVSPGERASLSCRASQSVGSNLAWYQQRPGQAPRLLIFGASTRATGIPARFSGSRSGTEFTLTISSLQSEDFALYYCQQYNNWPPWTFGQGTKLEIK
[1]
  inhibition of IL-6 secretion: inhibit IL-6 secretion
[2]
  inhibition of HDM induced TARC level, FIG. 13: inhibits
[3]
  IL-6 production: dose-dependent decrease
  IL-8 production: dose-dependent decrease
IL-1α signaling
  EC50 against IL-1α: subnanomolar
Recombinant human IL1RAP
  competition for binding, bin (2): competed with each other
